The values that follow come from patent US20250011737A1 (ALX ONCOLOGY, published 2025).

Residue numbers refer to the chain shown, from its start.

To fix the notation:
B1: SIRP-α variant construct (SEQ ID NO: 51), intact (other)
chain: GQYTSEVTELTREGETIIELKGGGGSGGGGSGGGGSLSGRSDNHGGGGSGGGGSEEELQIIQPDKSVLVAAGETATLRCTITSLFPVGPIQWFRGAGPGRVLIYNQRQGPFPRVTTVSDTTKRNNMDFSIRIGNITPADAGTYYCIKFRKGSPDDVEFKSGAGTELSVRAKPS
notes: uncleaved
B2: SIRP-α variant construct (SEQ ID NO: 48), intact (other)
chain: SEVTELTREGETGGGGSGGGGSLSGRSDNHGGGGSGGGGSEEELQIIQPDKSVLVAAGETATLRCTITSLFPVGPIQWFRGAGPGRVLIYNQRQGPFPRVTTVSDTTKRNNMDFSIRIGNITPADAGTYYCIKFRKGSPDDVEFKSGAGTELSVRAKPS
notes: uncleaved
B3: SIRP-α variant construct (SEQ ID NO: 49), intact (other)
chain: SEVTELTREGETGGGGSGGGGSGGGGSLSGRSDNHGGGGSGGGGSEEELQIIQPDKSVLVAAGETATLRCTITSLFPVGPIQWFRGAGPGRVLIYNQRQGPFPRVTTVSDTTKRNNMDFSIRIGNITPADAGTYYCIKFRKGSPDDVEFKSGAGTELSVRAKPS
notes: uncleaved
B4: SIRP-α variant construct (SEQ ID NO: 50), intact (other)
chain: GQYTSEVTELTREGETIIELKGGGGSGGGGSLSGRSDNHGGGGSGGGGSEEELQIIQPDKSVLVAAGETATLRCTITSLFPVGPIQWFRGAGPGRVLIYNQRQGPFPRVTTVSDTTKRNNMDFSIRIGNITPADAGTYYCIKFRKGSPDDVEFKSGAGTELSVRAKPS
notes: uncleaved
B5: SIRP-α variant (SEQ ID NO: 31) (receptor)
chain: EEELQIIQPDKSVLVAAGETATLRCTITSLFPVGPIQWFRGAGPGRVLIYNQRQGPFPRVTTVSDTTKRNNMDFSIRIGNITPADAGTYYCIKFRKGSPDDVEFKSGAGTELSVRAKPS
notes: also called SIRP-α variant alone
B6: SIRP-α variant construct (SEQ ID NO: 59), intact (other)
chain: GQLLFNKTKSVEFTFSNDTVVIPCFVTNMEAQNTTEVYVKWKFKGRDIYTFDGALNKSTVPTDFSSAKIEVSQLLKGDASLKMDKSDAVSHTGNYTCEVTELTREGETIIELKYRVVSGGGGSGGGGSGGGGSGGGGSGGGGSLSGRSDNHGGGGSGGGGSEEELQIIQPDKSVLVAAGETATLRCTITSLFPVGPIQWFRGAGPGRVLIYNQRQGPFPRVTTVSDTTKRNNMDFSIRIGNITPADAGTYYCIKFRKGSPDDVEFKSGAGTELSVRAKPS
notes: uncleaved
B7: SIRP-α variant construct (SEQ ID NO: 57), intact (other)
chain: GQLLFNKTKSVEFTFSNDTVVIPCFVTNMEAQNTTEVYVKWKFKGRDIYTFDGALNKSTVPTDFSSAKIEVSQLLKGDASLKMDKSDAVSHTGNYTCEVTELTREGETIIELKYRVVSGGGGSGGGGSGGGGSLSGRSDNHGGGGSGGGGSEEELQIIQPDKSVLVAAGETATLRCTITSLFPVGPIQWFRGAGPGRVLIYNQRQGPFPRVTTVSDTTKRNNMDFSIRIGNITPADAGTYYCIKFRKGSPDDVEFKSGAGTELSVRAKPS
notes: uncleaved
B8: SIRP-α variant construct (SEQ ID NO: 58), intact (other)
chain: GQLLFNKTKSVEFTFSNDTVVIPCFVTNMEAQNTTEVYVKWKFKGRDIYTFDGALNKSTVPTDFSSAKIEVSQLLKGDASLKMDKSDAVSHTGNYTCEVTELTREGETIIELKYRVVSGGGGSGGGGSGGGGSGGGGSLSGRSDNHGGGGSGGGGSEEELQIIQPDKSVLVAAGETATLRCTITSLFPVGPIQWFRGAGPGRVLIYNQRQGPFPRVTTVSDTTKRNNMDFSIRIGNITPADAGTYYCIKFRKGSPDDVEFKSGAGTELSVRAKPS
notes: uncleaved
B9: SIRP-α variant construct (SEQ ID NO: 63), intact (other)
chain: QLLFNKTKSVEFTFSNDTVVIPCFVTNMEAQNTTEVYVKWKFKGRDIYTFDGALNKSTVPTDFSSAKIEVSQLLKGDASLKMDKSDAVSHTGNYTCEVTELHREGETIIELKYRVVSGGGGSGGGGSGGGGSGGGGSLSGRSDNHGGGGSGGGGSEEELQIIQPDKSVLVAAGETATLRCTITSLFPVGPIQWFRGAGPGRVLIYNQRQGPFPRVTTVSDTTKRNNMDFSIRIGNITPADAGTYYCIKFRKGSPDDVEFKSGAGTELSVRAKPS
notes: uncleaved
B10: SIRP-α variant construct (SEQ ID NO: 60), intact (other)
chain: B9 chain with L101Q, H102T
notes: uncleaved
B11: SIRP-α variant construct (SEQ ID NO: 62), intact (other)
chain: B9 chain with H102Q
notes: uncleaved
B12: SIRP-α variant construct (SEQ ID NO: 61), intact (other)
chain: B9 chain with L101Y, H102T
notes: uncleaved
B13: SIRP-α variant construct (SEQ ID NO: 54), intact (other)
chain: QLLFNKTKSVEFTFSNDTVVIPCFVTNMEAQNTTEVYVKWKFKGRDIYTFDGALNKSTVPTDFSSAKIEVSQLLKGDASLKMDKSDAVSHTGNYTCEVTELTREGETIIELKYRVVSGGGGSGGGGSGGGGSGGGGSGGGGSLSGRSDNHGGGGSGGGGSEEELQIIQPDKSVLVAAGETATLRCTITSLFPVGPIQWFRGAGPGRVLIYNQRQGPFPRVTTVSDTTKRNNMDFSIRIGNITPADAGTYYCIKFRKGSPDDVEFKSGAGTELSVRAKPS
notes: uncleaved
B14: SIRP-α variant construct (SEQ ID NO: 53), intact (other)
chain: B9 chain with H102T
notes: uncleaved
B15: SIRP-α variant construct (SEQ ID NO: 52), intact (other)
chain: QLLFNKTKSVEFTFSNDTVVIPCFVTNMEAQNTTEVYVKWKFKGRDIYTFDGALNKSTVPTDFSSAKIEVSQLLKGDASLKMDKSDAVSHTGNYTCEVTELTREGETIIELKYRVVSGGGGSGGGGSGGGGSLSGRSDNHGGGGSGGGGSEEELQIIQPDKSVLVAAGETATLRCTITSLFPVGPIQWFRGAGPGRVLIYNQRQGPFPRVTTVSDTTKRNNMDFSIRIGNITPADAGTYYCIKFRKGSPDDVEFKSGAGTELSVRAKPS
notes: uncleaved

T1 sequence (Q08722 19-139 limits assumed): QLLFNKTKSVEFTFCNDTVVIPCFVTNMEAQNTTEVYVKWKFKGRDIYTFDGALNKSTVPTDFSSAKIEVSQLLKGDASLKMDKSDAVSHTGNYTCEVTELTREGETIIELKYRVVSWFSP

The first test concerns the target T1, human CD47-hFc (R & D Systems, catalog number 4670-CD) (human, UniProt Q08722 19-139).
T1 construct: Bought; immobilized by amine coupling on a CM4 chip (370 RU); also called CD47 on the chip; not shown: human Fc (hFc) of a bought protein
Description: SPR (Biacore T100), CD47-hFc immobilized on CM4 chip, intact construct at 100 nM. (Surface plasmon resonance follows binding to a sensor surface in real time, without labels.)
In the case of B1, the binding result is “binds”.

With B2, the binding result is “binds”.

In the case of B3, the binding result is reported as “binds”.

B4: the binding result is given as “binds”.

The next test concerns the target T2, CD47 IgSF domain having amino acids 1-117 and C15S, relative to wild-type CD47 (SEQ ID NO: 35) (human, UniProt Q08722 19-135).
T2 construct: in the assay it was tethered to, or released by cleavage from, the SIRP-α variant (it then still carries spacer and linker residues); also called IgSF domain of CD47
Description: inferred from SPR of cleaved constructs SEQ ID NOs: 52-54 on CD47-hFc.
For B5, the binding result is recorded as “binds”.

Another test concerns the target T1, human CD47-hFc (R & D Systems, catalog …). Description: SPR (Biacore T100), CD47-hFc immobilized on CM4 chip, intact construct injected (FIG. 5B).
In the case of B6, the binding result is “no binding (tested: 100 nM)”.

As for B7, the binding result is “no binding (tested: 100 nM)”.

Consider B8, for which the binding result is listed as “no binding (tested: 100 nM)”.

With B9, the binding result is “no binding (tested: 100 nM)”.

Take B10: the binding result is “no binding (tested: 100 nM)”.

Regarding B11, the binding result is listed as “no binding (tested: 100 nM)”.

As to B12, the binding result was “no binding (tested: 100 nM)”.

For a further test the target is unchanged. Description: SPR (Biacore T100), CD47-hFc immobilized on CM4 chip, intact construct injected.
Turning to B13, the binding result is reported as “no binding (tested: 100 nM)”.

Take B14: the binding result is on record as “no binding (tested: 100 nM)”.

As to B15, the binding result is “no binding (tested: 100 nM)”.
